Results taken from patent US20240181094A1, “[161Tb]-BASED RADIOPEPTIDES” (priority 2021, published 2024).
Starred links: 1 amine or outer side, 2 acyl side, 3 side chain; linkers in the order of their positions; H or OH if unused. Positions of bridges follow the written chain, without caps; N, C: chain ends. Non-standard residues stand in square brackets, D forms with d. Residues, ends and D or L forms follow the SMILES beside them. *: point of attachment. DOTA = O=C(O)CN1CCN(CC(=O)O)CCN(CC(=O)*)CCN(CC(=O)O)CC1; X1 = NC(=O)Nc1ccc(CC(N[*:1])C(=O)[*:2])cc1; Phe(4-Cl) = N[CH](Cc1ccc(Cl)cc1)C(=O)O

What was measured:
[1] = system: AR42J tumor-bearing mice; test: Biodistribution studies: comparison of 161Tb- and 177Lu-labeled peptides; details: 1 nmol/mouse, 2 h p.i.
[2] = in vivo; details: female, mouse, iv, 1 nmol/mouse, total radioactivity
[3] = system: AR42J tumor-bearing mice; details: female, CD-1 Foxn-1/nu athymic nude, mouse, in vivo, iv, 1 nmol/mouse, 24 h

## CC(O)C1NC(=O)C(CCCCN)NC(=O)C(Cc2ccc(NC(N)=O)cc2)NC(=O)C(Cc2ccc(O)cc2)NC(=O)C(NC(=O)C(Cc2ccc(Cl)cc2)NC(=O)CN2CCN(CC(=O)O)CCN(CC(=O)O)CCN(CC(=O)O)CC2)CSSCC(C(=O)NC(Cc2ccc(O)cc2)C(N)=O)NC1=O (stereo not shown) [metal not drawn] ({DOTA}-[Phe(4-Cl)]CY[X1]KTCY-NH2; disulfide 2-7; configuration not given here)
[1]
  Femur uptake: 0.20 ± 0.05 % IA/g
  Lung uptake: 1.0 ± 0.2 % IA/g
[2]; CD-1 Foxn-1/nu athymic nude
  tissue uptake at 2 h: ≤ 0.1 %ID/g
  tissue uptake at 24 h: ≤ 0.1 %ID/g
[2]; athymic nude CD-1 Foxn-1/nu
  tissue uptake at 2 h: ≤ 0.1 %ID/g
  tissue uptake at 24 h: ≤ 0.1 %ID/g
[3]
  Muscle uptake: ≤0.10 % IA/g
